Literature values as cited in article PMC4485156.

Target: haptoglobin-hemoglobin complex (Homo sapiens) (UniProt P00738)
UniProt P00738, sequence (P00738 19-406, chain 1 of 3): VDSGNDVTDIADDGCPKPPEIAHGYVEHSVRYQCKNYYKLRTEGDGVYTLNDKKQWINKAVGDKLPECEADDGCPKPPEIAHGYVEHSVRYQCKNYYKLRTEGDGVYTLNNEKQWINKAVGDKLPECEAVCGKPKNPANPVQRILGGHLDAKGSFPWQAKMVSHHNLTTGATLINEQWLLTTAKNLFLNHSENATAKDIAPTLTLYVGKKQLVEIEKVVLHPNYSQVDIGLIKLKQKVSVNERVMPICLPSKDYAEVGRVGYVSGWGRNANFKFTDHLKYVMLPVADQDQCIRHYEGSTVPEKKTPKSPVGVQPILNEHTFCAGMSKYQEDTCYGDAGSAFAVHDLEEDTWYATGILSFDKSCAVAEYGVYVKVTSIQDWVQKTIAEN
UniProt P00738, sequence (P69905 2-142, chain 2 of 3, further chain): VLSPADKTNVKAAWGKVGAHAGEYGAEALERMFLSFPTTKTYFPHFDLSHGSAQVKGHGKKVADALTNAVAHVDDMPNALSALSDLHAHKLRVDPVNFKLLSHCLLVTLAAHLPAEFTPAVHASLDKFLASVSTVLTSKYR
UniProt P00738, sequence (P68871 2-147, chain 3 of 3, further chain): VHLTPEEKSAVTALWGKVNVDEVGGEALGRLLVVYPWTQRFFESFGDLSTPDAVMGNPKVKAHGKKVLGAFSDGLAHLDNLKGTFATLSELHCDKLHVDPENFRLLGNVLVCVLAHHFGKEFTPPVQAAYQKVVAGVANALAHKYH

Kd: 19 nM
Substance: CD163 (from UniProt Q86VB7)
